Results: article PMC8385042

Biological target: TIR domain of Toll-like receptor 1 (TLR1-TIR), residues 625-786 of human TLR1 (human) (UniProt Q15399)
Assay: dynamic light scattering; 100 uM TLR1-TIR, 10 °C, cytoplasm-like buffer, threefold molar excess of ZnCl2 (1:3 protein to metal)

- stoichiometry N: 5
Substance: TIR domain of Toll-like receptor 1 (TLR1-TIR), residues 625-786 of human TLR1 (from UniProt Q15399 625-786) (domain or fragment)
